Test results: patent EP4328239A1 (Max-Delbrück-Centrum für Molekulare Medizin in der …, dated 2024)

Target: … (SEQ ID NO: 3) in complex with HLA-B*44:03 (human)
Assay: cell-based or functional assay

B1: TCR6 (TCR, V domains shown, not shown: a dimerising Fc or GST)
V domain 1: QKEVEQNSGPLSVPEGAIASLNCTYSDRGSQSFFWYRQYSGKSPELIMFIYSNGDKEDGRFTAQLNKASQYVSLLIRDSQPSDSATYLCAVSSNTGKLIFGQGTTLQVKP
V domain 2: DAGVIQSPRHEVTEMGQEVTLRCKPISGHNSLFWYRQTMMRGLELLIYFNNNVPIDDSGMPEDRFSAKMPNASFSTLKIQPSEPRDSAVYFCASKWGQGAGDTQYFGPGTRLTVL
- EC50 killing capacity: 1.4 E:T ratio
